Where two headings read alike, the source gives them in different places.

We go through 5 substances from patent US20260209317A1.

Test [1] addresses SARS-CoV-2 WA-1 S-2P spike protein (SARS-CoV-2) (UniProt P0DTC2).
Test [2] has as its target SARS-CoV-2 Omicron BA.4.6 spike protein (on pseudotyped lentivirus) (SARS-CoV-2).
Test [3] concerns the target SARS-CoV-2 Omicron BA.1 spike protein (on pseudotyped lentivirus) (SARS-CoV-2) (UniProt P0DTC2).
Test [4] addresses SARS-CoV-2 Omicron BA.4/BA.5 spike protein (on pseudotyped lentivirus) (SARS-CoV-2) (UniProt P0DTC2).
Test [5] addresses SARS-CoV-2 Omicron BA.2.75.2 spike protein (on pseudotyped lentivirus) (SARS-CoV-2).
Test [6] deals with SARS-CoV-2 Omicron XBB spike protein (on pseudotyped lentivirus) (SARS-CoV-2) (UniProt P0DTC2).
Test [7] concerns the target SARS-CoV-2 Omicron BA.2.12.1 spike protein (on pseudotyped lentivirus) (SARS-CoV-2) (UniProt P0DTC2).
Test [8] has as its target SARS-CoV-2 Omicron BJ.1 spike protein (on pseudotyped lentivirus) (SARS-CoV-2) (UniProt P0DTC2).
Test [9] has as its target SARS-CoV-2 Omicron BA.2.75 spike protein (on pseudotyped lentivirus) (SARS-CoV-2) (UniProt P0DTC2).
Test [10] deals with SARS-CoV-2 Omicron BQ.1.1 spike protein (on pseudotyped lentivirus) (SARS-CoV-2) (UniProt P0DTC2).
Test [11] has as its target SARS-CoV-2 Omicron BA.4.6 spike protein (on pseudotyped lentivirus) (SARS-CoV-2). The source holds these as a separate data set.
Test [12] concerns the target SARS-CoV-2 Omicron BA.4/BA.5 spike protein (on pseudotyped lentivirus) (SARS-CoV-2) (UniProt P0DTC2). This is another data set of the same source.

For BD55-5514 (antibody), the % inhibition of ACE2 binding in test [1] was 99%.

On to CB6 (antibody), for which the % inhibition of ACE2 binding in [1] was 93%.

Turning to DH1047 (antibody), the % inhibition of ACE2 binding in [1] was determined as 113%.

Regarding LY-CoV1404 (antibody), the neutralization IC50 in test [2] was 0.4 ng/mL; in test [3] it was 2 ng/mL; in test [4], 1.4 ng/mL; in test [5], 1 ng/mL; in test [6] it was above 10000 ng/mL; in test [7], 1 ng/mL. The neutralization IC50 in test [8] was above 10000 ng/mL; in test [9] it was 3 ng/mL; in test [10], above 10000 ng/mL; in [12] it was 1 ng/mL. The neutralization IC80 in test [2] is 1 ng/mL; in [3], 5 ng/mL; in test [4], 3 ng/mL; in test [5] it was 5 ng/mL; in [6] it was above 10000 ng/mL; in test [7] it was 4 ng/mL. Further, the neutralization IC80 was above 10000 ng/mL in test [8], 15 ng/mL in [9], above 10000 ng/mL in test [10] and 1.4 ng/mL in test [11]. In addition, the % inhibition of ACE2 binding in [1] was 99%.

As to S2H97 (antibody), in [1], the % inhibition of ACE2 binding was -3%.
